Assay results reported in US20150152398, “Endoribonuclease and Methods of Use Thereof” (The Regents of the University of California, published 2015).
Positions count from the first letter of the chain named.

Assays:
TtCas6B (TTHB231, Cas6) = molecular target: T1, TtCas6B (TTHB231, Cas6) (Thermus thermophilus HB8); assay: structure; crystal structure of R3 product complex, 2:2; settings: chain copies: 2 stated (dimer in solution); label: 5'-32P (EMSA); hairpin
T1 chain: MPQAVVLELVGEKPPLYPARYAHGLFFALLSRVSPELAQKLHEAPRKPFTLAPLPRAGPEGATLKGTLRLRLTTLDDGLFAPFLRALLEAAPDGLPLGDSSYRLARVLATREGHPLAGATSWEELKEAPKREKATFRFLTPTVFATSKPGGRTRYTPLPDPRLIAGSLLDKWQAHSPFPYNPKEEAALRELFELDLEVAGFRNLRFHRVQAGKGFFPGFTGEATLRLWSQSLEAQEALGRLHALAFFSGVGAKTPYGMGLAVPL

TtCas6A (TTHA0078, Cas6) [1] = molecular target: T2, TtCas6A (TTHA0078, Cas6) (Thermus thermophilus HB8); assay: structure; crystal structure of substrate mimic complex, 2:1 in crystal; settings: chain copies: 2 stated (dimer in solution); hairpin
T2 chain: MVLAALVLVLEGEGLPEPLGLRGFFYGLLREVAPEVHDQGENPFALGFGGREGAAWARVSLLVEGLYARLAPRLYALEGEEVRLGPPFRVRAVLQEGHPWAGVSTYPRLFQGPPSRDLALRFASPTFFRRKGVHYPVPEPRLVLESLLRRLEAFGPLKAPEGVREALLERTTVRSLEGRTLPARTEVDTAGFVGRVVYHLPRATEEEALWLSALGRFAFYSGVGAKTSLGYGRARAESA
Source text: (§1) To determine how TtCas6A and TtCas6B bind and cleave their RNA substrates, we solved crystal structures of these proteins both alone and in complexes with their cognate RNAs (FIG. 23A, FIG. 30). For TtCas6A, we obtained a structure of the enzyme bound to a substrate mimic based on the R1 repeat sequence, consisting of the R1 stem-loop flanked by two additional nucleotides on either end of the stem. Cleavage of the substrate mimic RNA was prevented by introducing a 2′-deoxyribonucleotide at the G28 position, thereby removing the 2′-hydroxyl nucleophile required for the cleavage reaction. In addition to the substrate mimic complex, a crystal structure of a complex of TtCas6A and a cleaved RNA product was obtained when full-length R1 repeat was bound to wild-type TtCas6A and allowed to undergo cleavage during subsequent complex purification and crystallization. Finally, we determined the crystal structure of the TtCas6A H37A mutant, lacking a critical active site residue, in the absence of bound RNA. For TtCas6B, we determined crystal structures of the wild-type enzyme alone and in complex with a product of the R3 repeat cleavage reaction.

TtCas6A (TTHA0078, Cas6) [2] = molecular target: T2, TtCas6A (TTHA0078, Cas6); assay: 5' truncation series, FIG. 5; settings: chain copies: 2 stated (dimer in solution); hairpin
TtCas6A (TTHA0078, Cas6) [3] = molecular target: T2, TtCas6A (TTHA0078, Cas6); assay: structure; crystal structure of cleaved R1 product complex, 2:1 in crystal; settings: chain copies: 2 stated (dimer in solution); label: 5'-32P (EMSA); hairpin
Source text: as §1

TtCas6A (TTHA0078, Cas6) [4] = molecular target: T2, TtCas6A (TTHA0078, Cas6); assay: EMSA; deletion of nt 1-8 had little effect on affinity; settings: chain copies: 2 stated (dimer in solution); hairpin
TtCas6A (TTHA0078, Cas6) [5] = molecular target: T2, TtCas6A (TTHA0078, Cas6); assay: EMSA; Kd in FIG. 25D only; settings: chain copies: 2 stated (dimer in solution); hairpin
TtCas6A H37A = molecular target: T3, TtCas6A H37A (Thermus thermophilus HB8, H37A); assay: cleavage_in_vitro; almost inactive; rate enhanced about 360-fold with 500 mM imidazole; settings: chain copies: 2 inferred; hairpin
T3 chain: T2 chain with H37A
Source text: (§2) Sites of cleavage are indicated with blue arrows. TtCas6e (TTHB192) cleaves repeat R2, while TtCas6A (TTHA0078) and TtCas6B (TTHB231) both cleave repeats R1 and R3. (B) Cleavage product binding affinities of TtCas6A and TtCas6B enzymes. Maltose binding protein (MBP)-fused TtCas6A or TtCas6B were bound to in 5′-radiolabelled, vitro transcribed R1 and R3 RNAs. Bound and unbound fractions were resolved by electrophoresis on a native polyacrylamide gel and visualized by phosphorimaging. The data for these and all subsequent binding assays were fit with standard binding isotherms (solid line). Error bars on each data point denote standard error of the mean (SEM) from three independent experiments. (C) Experiments to confirm single turnover. RNA cleavage assays were carried out at indicated protein:RNA ratios. RNA cleavage was monitored using denaturing polyacrylamide gel electrophoresis. […]
(§3) To shed light on the catalytic mechanism of TtCas6A and TtCas6B, we performed cleavage assays using wild type proteins as well as active site mutants TtCas6A H37A and TtCas6B H42A using repeat R1 as a substrate (FIG. 2C). The first order rate constant determined under single-turnover conditions for wild type TtCas6A (3.2 min⁻¹) and TtCas6B (3.7 min⁻¹) are in good agreement with first order rate constants previously determined for PaCas6f and TtCas6e. […]

TtCas6B H42A = molecular target: T4, TtCas6B H42A (Thermus thermophilus HB8, H42A); assay: cleavage_in_vitro; repeat R1; settings: chain copies: 2 inferred; hairpin
T4 chain: T1 chain with H42A
Source text: as §2, with “FIG. 22 illustrates that TtCas6A and TtCas6B both cleave repeats R1 and R3 and retain their cleaved products. (A) Sequences and predicted secondary structures of T. thermophilus CRISPR repeats. Sites” for “Sites”, “Error bars on each data point denote standard error of the mean (SEM) from three independent experiments. (C) Experiments to confirm single turnover. RNA cleavage assays were carried out at indicated protein:RNA ratios.” left out
as §3

GUUGCAAACCUCGUUAGCCUCGUAGAGGAUUGAAAC (ssRNA) [R3 repeat RNA (Tt_R2 in Example 1)]
binding result (TtCas6B (TTHB231, Cas6)): binds

AGCCCCGUAAGGGGAU (ssRNA, 2'-deoxy at G28) [R1 substrate mimic (nt 15-30, 2'-deoxy G28)]
binding result (TtCas6A (TTHA0078, Cas6) [1]): binds

AGGGAUUGAGCCCCGUAAGGGGA (ssRNA) [R1 nt 7-29]
binding signal (TtCas6A (TTHA0078, Cas6) [2]): 2.3 fold stronger than nt 8-29

GUUGCAAGGGAUUGAGCCCCGUAAGGGGAUUGCGAC (ssRNA) [R1 repeat RNA (Tt_R1)]
binding result (TtCas6A (TTHA0078, Cas6) [3]): binds

GGAUUGAGCCCCGUAAGGGGAU (ssRNA) [R1 deletion of nt 1-8]
binding result (TtCas6A (TTHA0078, Cas6) [4]): binds

GAGCCCCGUAAGGGGAU (ssRNA) [R1 deletion of nt 1-13]
fold increase in Kd relative to full R1 (TtCas6A (TTHA0078, Cas6) [5]): ~900 fold higher Kd than full R1

GUUGCAAGGGAUUGAGCCCCGUAAGGGGAU (ssRNA) [R1 nt 1-30]
activity (TtCas6A H37A): ~17000 fold cleavage defect
activity (TtCas6B H42A): ~300 fold cleavage defect
